This is an account of results in patent US20220185894A1 (F STAR THERAPEUTICS, published 2022).

The EC50 is the concentration needed to bring the measured effect to its halfway point. Usually Kd stands for the constant that tells how readily two partners part at equilibrium. The koff is the first-order rate constant of dissociation. In general, kon refers to the rate constant with which the complex forms.

For assay [1], the target named is T1, mouse LAG-3 expressed on cells (mouse, UniProt Q61790 24-521).
T1 construct: also called mLAG-3; murine LAG-3 HEK
T1 sequence: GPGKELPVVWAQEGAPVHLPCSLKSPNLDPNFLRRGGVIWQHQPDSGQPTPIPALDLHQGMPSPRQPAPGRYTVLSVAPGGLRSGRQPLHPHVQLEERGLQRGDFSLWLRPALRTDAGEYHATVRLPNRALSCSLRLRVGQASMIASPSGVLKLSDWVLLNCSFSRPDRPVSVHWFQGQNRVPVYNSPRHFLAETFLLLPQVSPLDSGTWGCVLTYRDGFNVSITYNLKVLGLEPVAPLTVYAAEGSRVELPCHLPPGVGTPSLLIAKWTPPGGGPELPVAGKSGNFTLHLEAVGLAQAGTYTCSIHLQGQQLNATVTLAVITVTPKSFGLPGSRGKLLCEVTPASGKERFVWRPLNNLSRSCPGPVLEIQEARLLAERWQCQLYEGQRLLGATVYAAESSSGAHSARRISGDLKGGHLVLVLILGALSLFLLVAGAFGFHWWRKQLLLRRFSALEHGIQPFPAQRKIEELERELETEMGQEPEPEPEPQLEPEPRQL
Description: flow cytometry on HEK cells expressing murine LAG-3. Here is the method: The affinity of the mAb² (all containing the LALA mutations) binding to cell expressed murine LAG-3 or murine PD-L1 was determined using flow cytometry. HEK cells expressing murine LAG-3 or murine PD-L1 grown in DMEM (Life Technologies, 61965-026) containing 10% FBS (Life Technologies, 10270-1-6), 100 μg/ml Hygromycin B (Melford Laboratories Ltd, Z2475), 15 μg/ml Blasticidin (Melford Laboratories Ltd, B1105) and 1 μg/ml Doxycyclin (Sigma, D9891) were detached from tissue culture flasks using cell dissociation buffer (Life Technologies, 13151-014) and seeded in V-bottom 96-well plates (Costar, 3897) at 2×10⁵ cells/well. The plates were centrifuged at 1500 rpm for 3 min at 4° C. to pellet the cells. A dilution series of the mAb² (or control mAb) were incubated with the cells in a 60 μl volume for 1 h at 4° C. The plates were washed and secondary antibody (Anti-human Fc-488, Jackson ImmunoResearch, 109-546-098 for mAb² or Anti-Rat IgG (H+L), Alexa Fluor 488, ThermoFisher, A-11006 for anti-LAG-3 control, C9B7W) was diluted 1:1000 in PBS and 50 μl was added to the cells for 30 min at 4° C. (plates were kept in the dark). The plates were washed then cells were resuspended in 50 μl FACS Cell Fix (BD Bioscience, 340181) for 15 minutes, then washed and resuspended in 100 μl PBS containing 1 μg/ml DAPI (Biotium, 40043). The plates were read using Canto II flow cytometer (BD Bioscience). Dead cells were excluded and the fluorescence in the FITC channel (488 nm/530/30) was measured. The data was fit using log (agonist) vs response in GraphPad Prism Software. The plates were read on a BD FACSCanto II cytometer (BD Biosciences) and the data analysed using FlowJo.
(In general: Flow cytometry measures light scatter and fluorescence of single cells or particles in a stream.)

Assay [2] has as its target T2, cynomolgus PD-L1 expressed on cells (cynomolgus monkey, UniProt Q9NZQ7 19-290 (human entry)).
T2 construct: also called cPD-L1; cyno PD-L1
Briefly: flow cytometry on HEK cells expressing cynomolgus PD-L1. How it is done:
(§1) HEK cells expressing human or cynomolgus PD-L1 grown in DMEM (Life Technologies, 61965-026) containing 10% FBS (Life Technologies, 10270-1-6), 100 μg/ml Hygromycin B (Melford Laboratories Ltd, Z2475), 15 μg/ml Blasticidin (Melford Laboratories Ltd, B1105) and 1 μg/ml Doxycyclin (Sigma, D9891) were detached from tissue culture flasks using cell dissociation buffer (Life Technologies, 13151-014) and seeded in V-bottom 96-well plates (Costar, 3897) at 2×10⁵ cells/well. The plates were centrifuged at 1500 rpm for 3 min at 4° C. to pellet the cells. A dilution series of the mAb² (or control mAb) was incubated with the cells in a 100 μl volume for 1 h at 4° C. The plates were washed and secondary antibody (Anti-human Fc-488, Jackson ImmunoResearch, 109-546-098) was diluted 1:1000 in PBS and 100 μl was added to the cells for 30 min at 4° C. (plates were kept in the dark). The plates were washed then cells were resuspended in 100 μl PBS containing 1 μg/ml DAPI (Biotium, 40043). The plates were read using Canto II flow cytometer (BD Bioscience). Dead cells were excluded and the fluorescence in the FITC channel (488 nm/530/30) was measured. The data was fit using log (agonist) vs response in GraphPad Prism Software. The plates were read on a BD FACSCanto II cytometer (BD Biosciences) and the data analysed using FlowJo.

Assay [3] concerns the target T3, human PD-L1 expressed on cells (human, UniProt Q9NZQ7 19-290). Briefly: cell-based or functional assay.
For assay [4], the target named is T4, human PD-L1 Fc (R&D Systems, 156-B7) (human, UniProt Q9NZQ7 19-239).
T4 construct: Bought protein; not shown: Fc tag of the bought fusion protein
T4 sequence (Q9NZQ7 19-239 limits assumed): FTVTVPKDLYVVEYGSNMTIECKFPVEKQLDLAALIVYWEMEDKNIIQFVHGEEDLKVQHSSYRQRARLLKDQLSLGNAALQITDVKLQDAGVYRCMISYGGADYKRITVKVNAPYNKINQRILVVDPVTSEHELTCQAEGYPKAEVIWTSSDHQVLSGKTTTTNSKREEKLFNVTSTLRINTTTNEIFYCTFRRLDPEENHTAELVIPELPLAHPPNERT
Description: SPR, BIAcore T200; mAb2 captured on Protein L, PD-L1 Fc injected. How it is done: (§2) Protein L (Thermo, 21189) was immobilized on flow cells 1 and 2 of a Series S CM5 chip (GE Healthcare, BR-1005-30) by amine coupling (GE Healthcare, BR-1000-50) to a surface density of 2000 RU by following the manufacturer's instructions for the BIAcore T200 instrument. […] The association time was 3 min and the dissociation time was 6 min. Running buffer was HBS-P (GE Healthcare, BR-1003-68). Both flow cells were regenerated by injecting 10 mM sodium hydroxide (NaOH) at a flow rate of 100 μl/min for 20 seconds. The data were analysed by double referencing against the blank flow cell.
(§3) The binding kinetics were fit with a 1:1 Langmuir model to generate binding association (kₐ) and dissociation (kd) rates. Equilibrium binding constants (KD) were calculated by dividing the dissociation rate by the association rate for each sample. Data analysis was performed with BiaEvaluation software version 3.2.

Assay [5] has as its target T5, recombinant Fc-tagged human LAG-3 (R&D Systems, 2319-L3-050) (human, UniProt P18627 23-450).
T5 construct: Bought protein; also called LAG-3 Fc; human LAG-3-Fc; not shown: Fc tag of the bought fusion protein
T5 sequence: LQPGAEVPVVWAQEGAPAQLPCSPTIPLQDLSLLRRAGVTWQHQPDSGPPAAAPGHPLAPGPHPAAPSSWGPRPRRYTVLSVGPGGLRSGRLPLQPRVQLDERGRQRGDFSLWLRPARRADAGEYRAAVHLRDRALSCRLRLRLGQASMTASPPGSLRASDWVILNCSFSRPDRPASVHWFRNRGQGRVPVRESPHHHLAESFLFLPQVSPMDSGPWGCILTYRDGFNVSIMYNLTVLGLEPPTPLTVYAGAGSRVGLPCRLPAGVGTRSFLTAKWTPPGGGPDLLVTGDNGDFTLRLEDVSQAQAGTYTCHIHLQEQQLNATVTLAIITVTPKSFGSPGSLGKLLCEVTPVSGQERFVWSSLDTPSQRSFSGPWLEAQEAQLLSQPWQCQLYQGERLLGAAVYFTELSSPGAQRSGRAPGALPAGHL
Briefly: SPR, BIAcore T200; mAb2 captured on Protein L, human LAG-3 Fc injected. How it is done: as §2, §3

For assay [6], the target named is T3, human PD-L1 expressed on cells. Description: flow cytometry on HEK cells expressing human PD-L1. Here is the method:
as §1

T3 sequence (Q9NZQ7 19-290 limits assumed): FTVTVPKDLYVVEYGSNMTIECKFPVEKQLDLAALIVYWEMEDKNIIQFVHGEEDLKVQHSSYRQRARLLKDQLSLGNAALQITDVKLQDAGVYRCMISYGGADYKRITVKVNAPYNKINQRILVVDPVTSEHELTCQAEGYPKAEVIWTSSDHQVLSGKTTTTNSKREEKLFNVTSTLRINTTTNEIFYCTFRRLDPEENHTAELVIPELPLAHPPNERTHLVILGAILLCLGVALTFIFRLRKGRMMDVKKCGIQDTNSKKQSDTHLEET
T2 sequence (Q9NZQ7 other isoform, or with tags, fused parts or gaps limits assumed): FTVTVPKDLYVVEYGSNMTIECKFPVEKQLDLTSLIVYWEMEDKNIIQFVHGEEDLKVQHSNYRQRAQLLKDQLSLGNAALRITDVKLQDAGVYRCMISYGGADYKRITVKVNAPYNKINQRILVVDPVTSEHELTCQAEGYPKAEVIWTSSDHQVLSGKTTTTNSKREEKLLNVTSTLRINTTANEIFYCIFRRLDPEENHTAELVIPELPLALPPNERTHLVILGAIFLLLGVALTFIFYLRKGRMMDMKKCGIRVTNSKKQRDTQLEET

B1: anti-mouse LAG-3/FITC mAb2 FS18-7-108-29/4420 comprising LALA mutation (bispecific antibody, human IgG1, kappa, L234A L235A)
heavy: EVKLDETGGGLVQPGRPMKLSCVASGFTFSDYWMNWVRQSPEKGLEWVAQIRNKPYNYETYYSDSVKGRFTISRDDSKSSVYLQMNNLRVEDMGIYYCTGSYYGMDYWGQGTSVTVSSASTKGPSVFPLAPSSKSTSGGTAALGCLVKDYFPEPVTVSWNSGALTSGVHTFPAVLQSSGLYSLSSVVTVPSSSLGTQTYICNVNHKPSNTKVDKKVEPKSCDKTHTCPPCPAPEAAGGPSVFLFPPKPKDTLMISRTPEVTCVVVDVSHEDPEVKFNWYVDGVEVHNAKTKPREEQYNSTYRVVSVLTVLHQDWLNGKEYKCKVSNKALPAPIEKTISKAKGQPREPQVYTLPPSWDEPWGEDVSLTCLVKGFYPSDIVVEWESNGQPENNYKTTPPVLDSDGSFFLYSKLTVPFERWMWPDEFSCSVMHEALHNHYTQKSLSLSPG
light: DVVMTQTPLSLPVSLGDQASISCRSSQSLVHSNGNTYLRWYLQKPGQSPKVLIYKVSNRFSGVPDRFSGSGSGTDFTLKISRVEAEDLGVYFCSQSTHVPWTFGGGTKLEIKRTVAAPSVFIFPPSDEQLKSGTASVVCLLNNFYPREAKVQWKVDNALQSGNSQESVTEQDSKDSTYSLSSTLTLSKADYEKHKVYACEVTHQGLSSPVTKSFNRGEC
notes: also called FS18-29/4420
In turn, B1 returned an EC50 in assay [1] of 2.29 nM.

B2: anti-human LAG-3/PD-L1 mAb2 FS18-7-36/84G09 with LALA mutation (bispecific antibody, human IgG1, kappa, L234A L235A)
heavy: EVQLVESGGGLVQPGRSLRLSCAASGFTFDDYAMHWVRQTPGKGLEWVSGISWKSNIIGYADSVKGRFTISRDNAKNSLYLQMNSLRAEDTALYYCARDITGSGSYGWFDPWGQGTLVTVSSASTKGPSVFPLAPSSKSTSGGTAALGCLVKDYFPEPVTVSWNSGALTSGVHTFPAVLQSSGLYSLSSVVTVPSSSLGTQTYICNVNHKPSNTKVDKKVEPKSCDKTHTCPPCPAPEAAGGPSVFLFPPKPKDTLMISRTPEVTCVVVDVSHEDPEVKFNWYVDGVEVHNAKTKPREEQYNSTYRVVSVLTVLHQDWLNGKEYKCKVSNKALPAPIEKTISKAKGQPREPQVYTLPPSWDEPWGEDVSLTCLVKGFYPSDIAVEWESNGQPENNYKTTPPVLDSDGSYFLYSKLTVPYDRWVWPDEFSCSVMHEALHNHYTQKSLSLSPG
light: DIQMTQSPSSLSASVGDRVTITCRASQSISSYLNWYQQKPGKAPKPLIYVASSLQSGVPSSFSGSGSGTDFTLTISSLQPEDFATYYCQQSYSNPITFGQGTRLEIKRTVAAPSVFIFPPSDEQLKSGTASVVCLLNNFYPREAKVQWKVDNALQSGNSQESVTEQDSKDSTYSLSSTLTLSKADYEKHKVYACEVTHQGLSSPVTKSFNRGEC
notes: also called FS18-7-36/84G09LALA
In the case of B2, a half-maximal effect in assay [2] (EC50) was put at 2 nM. The “Maximal IL2 release calculated as % ctrl (84G09 + 25F7)” value in assay [3] was 71.6%. In assay [4], this molecule registered a Kd of 3.5 nM, a koff of 0.00056 s⁻¹ and a kon of 160000 M⁻¹ s⁻¹. Further, in assay [5], the Kd was 0.038 nM, the dissociation rate constant (koff) was 0.00017 s⁻¹ and the kon was determined as 4.4e+06 M⁻¹ s⁻¹. In assay [6], this molecule yielded a concentration giving a half-maximal response (EC50) of 3.91 nM.

B3: anti-human LAG-3/PD-L1 mAb2 FS18-7-65/84G09 with LALA mutation (bispecific antibody, human IgG1, kappa, L234A L235A)
heavy: EVQLVESGGGLVQPGRSLRLSCAASGFTFDDYAMHWVRQTPGKGLEWVSGISWKSNIIGYADSVKGRFTISRDNAKNSLYLQMNSLRAEDTALYYCARDITGSGSYGWFDPWGQGTLVTVSSASTKGPSVFPLAPSSKSTSGGTAALGCLVKDYFPEPVTVSWNSGALTSGVHTFPAVLQSSGLYSLSSVVTVPSSSLGTQTYICNVNHKPSNTKVDKKVEPKSCDKTHTCPPCPAPEAAGGPSVFLFPPKPKDTLMISRTPEVTCVVVDVSHEDPEVKFNWYVDGVEVHNAKTKPREEQYNSTYRVVSVLTVLHQDWLNGKEYKCKVSNKALPAPIEKTISKAKGQPREPQVYTLPPSWDEPWGEDVSLTCLVKGFYPSDIAVEWESNGYAEYNYKTTPPVLDSDGSFFLYSKLTVPYDRWVWPDEFSCSVMHEALHNHYTQKSLSLSPG
light: DIQMTQSPSSLSASVGDRVTITCRASQSISSYLNWYQQKPGKAPKPLIYVASSLQSGVPSSFSGSGSGTDFTLTISSLQPEDFATYYCQQSYSNPITFGQGTRLEIKRTVAAPSVFIFPPSDEQLKSGTASVVCLLNNFYPREAKVQWKVDNALQSGNSQESVTEQDSKDSTYSLSSTLTLSKADYEKHKVYACEVTHQGLSSPVTKSFNRGEC
notes: also called FS18-7-65/84G09 LALA; F518-7-65/84G09LALA
Molecule B3 yielded an EC50 in assay [2] of 1.84 nM. The “Maximal IL2 release calculated as % ctrl (84G09 + 25F7)” value in assay [3] is 70.2%. In assay [4], this molecule showed an equilibrium dissociation constant (Kd) of 1.1 nM, an off-rate (koff) of 0.00014 s⁻¹ and a kon of 130000 M⁻¹ s⁻¹. Further, in assay [5], the dissociation constant Kd is 0.039 nM, the koff was determined as 0.00023 s⁻¹ and the kon stood at 5.9e+06 M⁻¹ s⁻¹. In assay [6], this molecule displayed a concentration giving a half-maximal response (EC50) of 4 nM.
